This note sets out measurements from patent US20030171279A1.

Some results are limits rather than exact numbers.

The target of data set [1] is mouse BAD (murine BAD pro-apoptotic polypeptide) (mouse) (UniProt Q61337). Nature of the data set: cell-based or functional assay.
The target in data set [2] is T1, HSV-1 UL34 protein, P10218.
T1 chain: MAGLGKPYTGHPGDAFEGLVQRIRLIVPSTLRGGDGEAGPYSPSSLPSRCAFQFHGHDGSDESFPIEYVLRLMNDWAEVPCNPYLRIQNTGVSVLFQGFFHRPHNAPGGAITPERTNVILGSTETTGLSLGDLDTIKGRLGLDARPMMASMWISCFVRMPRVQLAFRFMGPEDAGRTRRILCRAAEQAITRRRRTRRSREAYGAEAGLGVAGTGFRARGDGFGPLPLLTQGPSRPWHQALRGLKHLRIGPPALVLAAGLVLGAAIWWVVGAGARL

The target in data set [3] is T2, mouse BAD (murine BAD pro-apoptotic polypeptide).
T2 chain: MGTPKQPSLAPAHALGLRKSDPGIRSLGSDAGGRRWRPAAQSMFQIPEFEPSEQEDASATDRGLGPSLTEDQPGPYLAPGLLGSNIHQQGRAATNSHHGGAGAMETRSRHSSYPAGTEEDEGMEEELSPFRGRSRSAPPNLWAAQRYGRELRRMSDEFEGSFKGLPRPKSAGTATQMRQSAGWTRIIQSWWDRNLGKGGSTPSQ

Consider “herpes simplex virus 1 (HSV-1) US3 protein kinase (from UniProt P04413 1-481) (enzyme)”, for which the DEVDase activity (fold increase over mock-infected cells) (fold increase) in data set [1] was < 2.

B1: herpes simplex virus 1 (HSV-1) US3 protein kinase (protein)
chain: MACRKFCRVYGGQGRRKEEAVPPETKPSRVFPHGPFYTPAEDACLDSPPPETPKPSHTTPPSEAERLCHLQEILAQMYGNQDYPIEDDPSADAADDVDEDAPDDVAYPEEYAEELFLPGDATGPLIGANDHIPPPCGASPPGIRRRSRDEIGATGFTAEELDAMDREAARAISRGGKPPSTMAKLVTGMGFTIHGALTPGSEGCVFDSSHPDYPQRVIVKAGWYTSTSHEARLLRRLDHPAILPLLDLHVVSGVTCLVLPKYQADLYTYLSRRLNPLGRPQIAAVSRQLLSAVDYIHRQGIIHRDIKTENIFINTPEDICLGDFGAACFVQGSRSSPFPYGIAGTIDTNAPEVLAGDPYTTTVDIWSAGLVIFETAVHNASLFSAPRGPKRGPCDSQITRIIRQAQVHVDEFSPHPESRLTSRYRSRAAGNNRPPYTRPAWTRYYKMDIDVEYLVCKALTFDGALRPSAAELLCLPLFQQK
Consider B1, for which the “processing of UL34 protein (apparent Mr 30,000 against 33,000; 32P labelling and UL34 immunoblot)” value in data set [2] was “the fully processed UL34 protein was present in cells infected with HSV-1(F) but not cells infected with 120FR or R7041”. For the same molecule, in data set [3], the “DNA fragmentation (agarose gel)” value is reported as “DNA fragmentation was not observed in extracts of Bac-Bad treated cells that had been previously exposed to Bac-US3”; the “cleavage of poly(ADP-ribose) polymerase (Mr 85,000 PARP cleavage product, immunoblot)” value is “readily detected in mock- or in Bac-WT-infected cells that had been exposed to Bac-Bad, but not in Bac-US3 infected cells that had been exposed to Bac-Bad”; the “electrophoretic mobility and total amount of BAD (immunoblot with anti-BAD antibody)” value was “migrated more slowly and was significantly reduced in amount relative to those detected in lysates of cells exposed to BAC-WT or mock-infected prior to exposure to Bac-BAD”; the “levels of BAD phosphorylated at ser136, ser155 and ser112 (immunoblot with phospho-specific antibodies)” value is “The levels of BAD phosphorylated at ser136, ser155, and ser112 present in cells mock infected were similar to those present in cells infected with Bac-WT or Bac-US3”.
